Results published in publication PMC7356358 (Biomolecules, 2020).
Like-named read-outs stand apart in the source and are kept apart here.

Experiments:
[1] = system: PfHsp70-1; assay: Interaction of PfHsp40 with PfHsp70-1 by MP-SPR; type: binding, Plasmodium falciparum
[2] = molecular target: DnaK (Escherichia coli, UniProt P0A6Y8); settings: MP-SPR, PfHsp40 over immobilized DnaK, three runs
[3] = system: KPf; settings: MP-SPR, PfHsp40 over immobilized KPf, three runs
Method: The analysis was conducted both in the absence and presence of 5 mM of ATP/ADP. The ligand and analyte pairs were swapped, and the data generated were analyzed after global fitting. Association was allowed for 2 min, and dissociation was monitored for 8 min. Data analysis was conducted using TraceDrawer software version 1.8 (Ridgeview Instruments).

[4] = ATPase activity (released inorganic phosphate); type: biochemical; settings: PfHsp40 preparation alone, non-ATPase control
Method: Hsp70 proteins at final concentration of 0.4 μM were each incubated for 5 min in buffer HKMD (10 mM HEPES-KOH pH 7.5, 100 mM KCl, 2 mM MgCl2 and 0.5 mM DTT). The reaction was initiated by the addition of ATP at various concentrations (0–5 mM) and samples were analyzed every 30 min for 4 h.

DnaK, sequence (P0A6Y8 whole entry): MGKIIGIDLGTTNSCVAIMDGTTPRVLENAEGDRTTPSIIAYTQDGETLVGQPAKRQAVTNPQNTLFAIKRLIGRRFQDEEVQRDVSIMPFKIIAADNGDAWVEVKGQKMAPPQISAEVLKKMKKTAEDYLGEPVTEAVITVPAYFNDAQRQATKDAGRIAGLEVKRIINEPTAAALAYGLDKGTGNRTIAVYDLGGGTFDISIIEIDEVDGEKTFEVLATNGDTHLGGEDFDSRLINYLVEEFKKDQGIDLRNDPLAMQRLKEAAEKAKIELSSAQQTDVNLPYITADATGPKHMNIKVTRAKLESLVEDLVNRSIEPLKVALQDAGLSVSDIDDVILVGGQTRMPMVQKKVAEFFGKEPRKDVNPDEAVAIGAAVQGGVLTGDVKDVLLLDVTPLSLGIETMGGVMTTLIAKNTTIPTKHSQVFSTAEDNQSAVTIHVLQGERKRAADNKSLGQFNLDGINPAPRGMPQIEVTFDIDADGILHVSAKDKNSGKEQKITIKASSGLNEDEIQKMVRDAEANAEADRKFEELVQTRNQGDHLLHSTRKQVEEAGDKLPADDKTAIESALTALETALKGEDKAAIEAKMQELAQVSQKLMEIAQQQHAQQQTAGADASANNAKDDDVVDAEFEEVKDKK
KPf, sequence (P11144 405-631 limits assumed): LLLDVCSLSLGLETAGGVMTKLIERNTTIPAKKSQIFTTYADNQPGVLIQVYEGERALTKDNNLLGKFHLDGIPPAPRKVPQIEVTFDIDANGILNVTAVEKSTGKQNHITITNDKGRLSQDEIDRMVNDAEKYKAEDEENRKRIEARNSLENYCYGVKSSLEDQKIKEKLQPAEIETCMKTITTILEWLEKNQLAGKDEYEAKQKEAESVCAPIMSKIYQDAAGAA
PfHsp70-1, sequence (P11144 1-630 limits assumed): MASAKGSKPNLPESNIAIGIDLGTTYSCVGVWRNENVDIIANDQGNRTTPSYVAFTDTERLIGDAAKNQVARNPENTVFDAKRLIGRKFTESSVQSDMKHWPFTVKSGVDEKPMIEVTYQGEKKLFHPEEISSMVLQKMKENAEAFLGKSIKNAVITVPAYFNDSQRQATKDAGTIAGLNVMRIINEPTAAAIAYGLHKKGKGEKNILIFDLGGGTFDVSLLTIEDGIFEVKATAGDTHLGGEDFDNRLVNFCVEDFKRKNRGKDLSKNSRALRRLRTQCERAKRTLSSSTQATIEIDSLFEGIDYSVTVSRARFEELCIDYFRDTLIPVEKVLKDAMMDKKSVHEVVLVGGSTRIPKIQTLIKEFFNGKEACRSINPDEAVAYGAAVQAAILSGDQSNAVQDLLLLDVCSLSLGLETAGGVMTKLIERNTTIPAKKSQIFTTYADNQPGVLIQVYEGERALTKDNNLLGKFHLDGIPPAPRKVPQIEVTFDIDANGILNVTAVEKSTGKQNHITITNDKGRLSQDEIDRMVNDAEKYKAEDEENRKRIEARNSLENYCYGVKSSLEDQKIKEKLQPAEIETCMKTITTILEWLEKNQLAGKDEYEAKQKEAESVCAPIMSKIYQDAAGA

B1: PfHsp40: P. falciparum type I Hsp40 (PF3D7_1437900), co-chaperone of PfHsp70-1 (protein)
chain: MFFSSGFPFDSMGGQQARRKREVNNNKFYEVLNLKKNCTTDEVKKAYRKLAIIHHPDKGGDPEKFKEISRAYEVLSDEEKRKLYDEYGEEGLENGEQPADATDLFDFILNAGKGKKKRGEDIVSEVKVTLEQLYNGATKKLAISKDIICTNCEGHGGPKDAKVDCKQCNGRGTKTYMRYHSSVLHQTEVTCNTCRGKGKIFNEKDKCANCKGMCVLKTRKIIEVYIPKGAPNKHKIVFNGEADEKPNVITGNLVVILNEKQHPVFRREGIDLFMNYKISLYESLTGFVAEVTHLDERKILVNCTNSGFIRHGDIREVLDEGMPTYKDPFKKGNLYITFEVEYPMDLIITNENKEVLKILKKQNEVEKKYDLENSELEVVSCSPVDKEYIKVRVTKQQQQQQQEAYDDEDHQPEMEGGRVACAQQ
modifications: left off: His6, N-terminal, state not stated
With B1 the Ka ([1]; PfHsp40 over immobilized PfHsp70-1, + 5 mM ADP, three runs) was 1.53 (±0.03) × 10^3 Ms^−1, the Ka ([1]; PfHsp40 over immobilized PfHsp70-1, no nucleotide, three runs) was 1.33 (±0.03) × 10^3 Ms^−1 and the Ka ([1]; analyte PfHsp40 0-2000 nM over immobilized PfHsp70-1, + 5 mM ATP, global fit, mean (SD) of three runs) was 1.81 (±0.01) × 10^2 Ms^−1. The Ka ([2]; + 5 mM ADP) was 1.16 (±0.06) × 10^2 Ms^−1, the Ka ([2]; + 5 mM ATP) was 1.22 (±0.02) × 10^2 Ms^−1 and the Ka ([2]; no nucleotide) was 1.12 (±0.02) × 10^2 Ms^−1. The Ka ([3]; + 5 mM ADP) was 1.36 (±0.26) × 10^2 Ms^−1, the Ka ([3]; + 5 mM ATP) was 1.72 (±0.02) × 10^2 Ms^−1 and the Ka ([3]; no nucleotide) was 1.24 (±0.04) × 10^4 Ms^−1. For the same molecule, the “independent basal ATPase activity” value [4] was “no detectable”.
